System: MS2 coat protein
Assay: apparent KD of MS2 coat protein; designed switch direction (-1 OFF switch, 1 ON switch): -1; higher = weaker reporter binding
Method in brief: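 Designed RNA switches with common flanks were made on Illumina chips by stalled E. coli RNA polymerase. Titration with SNAP-549-labelled MS2 coat protein doubled from 0.7 or 1.5 nM up to 3 µM. Apparent KD is each design's median over clusters after curve-fitting normalised fluorescence.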

[1] = input ligand: microRNA oligo, concentration not stated
[2] = Eterna round: R95, input ligand: microRNA oligo, concentration not stated
[3] = Eterna round: R95, input ligand: FMN 200 uM
[4] = Eterna round: R95, input ligand: none

| Sequence | apparent KD of MS2 coat protein (input ligand: FMN 200 uM) [nM] | apparent KD of MS2 coat protein (input ligand: none) [nM] | apparent KD of MS2 coat protein [1] [nM] | apparent KD of MS2 coat protein [2] [nM] | apparent KD of MS2 coat protein [3] [nM] | apparent KD of MS2 coat protein [4] [nM] |
| --- | --- | --- | --- | --- | --- | --- |
| GCUAUGACUGUGAGGAUAUGGACCGGGCUCUCGGAUUAGAAGGCACAUGAGGAUCACCCAUGUGAUCACGUACU [Eternabot (L2) Solution 87] (Eterna round: R97, puzzle: Brourd's mod of Exclusion 4) | 42.2 | 27.5 |  |  |  |  |
| UACAUGAGGAUCACCCAUGUUUUGUCGUGUAUGGUAUUUAUCUAGGAUAUCAAGUUGUUUAUUUAUGAGAAGGAGAAUAUUAAU [JMF's solution 27] (Eterna round: R96, puzzle: Exclusion NG 3) |  |  | 28.8 |  |  |  |
| CCAGCGGACAAAGGAUAUUGCGGUGACCGGCUCGGCGUACCGAGCCUACAUGAGGAUCACCCAUGUAAGAAGGUUGUCGUAGGA [Mat - Exclusion NG 2 - Mod of JL - D73] (Eterna round: R96, puzzle: Exclusion NG 2) | 56.1 | 19.5 | 13.2 |  |  |  |
| GCUCAGUAAGGAUAUUGUUUAGGAGCUAUAGGCGUAGUUAACAAGAAGGUACAUGAGGAUCACCCAUGUCCAUC [Eternabot (L2) Solution 36] (Eterna round: R97, puzzle: Exclusion 4) | 17.7 | 15.1 |  |  |  |  |
| UUCGAGGCAGGAUAUGCGUAGCCACGGAGGAUCACCAAGUAACAUGAGGAUCACCCAUGUAGAAGGGCUAGAGC [Eternabot (L1) Solution 26] (Eterna round: R97, puzzle: Exclusion 2) | 60.1 | 76.4 |  |  |  |  |
| GCCCGGGCAGGAUAUACAAUGAUCGUGAGAAAUCGUGAUCGACAUGAGGAUCACCCAUGUAGAAGGGCCCGGGC [-34.5, -32.3 kcal, A 28% 2] (Eterna round: R97, puzzle: Exclusion 2) | 116 | 50.5 |  |  |  |  |
| GAUAAACAUGAGGAUCACCCAUGUGAGGAUAUGCGUACGUUGUCCGUAGGCGACGUGCGCAGAAGGCGCAAGGU [Mat - Mod of JL D99] (puzzle: Exclusion 1) |  |  |  | 73 |  |  |
| UGAGCAUCAGGAUAUACAAGGCGACCGUGAGGUCGAGGGUUACAUGAGGAUCACCCAUGUAGAAGGGAUGUUCU [jl-ex2-4.09] (Eterna round: R97, puzzle: Exclusion 2) | 196 | 43.4 |  |  |  |  |
| GCUUUUUGUGUAGGAUAUCGCGCGCGGCGUGUGUGAGAAGGACAUGAGGAUCACCCAUGUAGCAACGGCGGCGCUGGUGUUGUC [-27, -24 kcal and 18% A] (Eterna round: R96, puzzle: Exclusion NG 1) | 16.7 | 19.5 | 10.7 |  |  |  |
| UGAGGACAUGAGGAUCACCCAUGUAAGGAUAUGCGGAGAGCUUGGAGAGGUUGAGGAGGCAGAAGGUACAGGAC [JR_Exclu1_Sub048] (puzzle: Exclusion 1) |  |  |  | 48.3 | 47.7 | 57 |
| AGUACAUACACGAAAGUGUAUGUACAAUAAGCUUGUGGAACAUGAGGAUCACCCAUGUCCUCAUAAGCUCGUCUUAU [Mat - Sensor v3 - Turn-off var 2 - D30] (puzzle: Sensor v3, turn-off variant 2) |  |  |  | 71.4 | 16.5 | 15.5 |
| AGUCAGACGGUAGGAUAUCCAUAUCGAGUGACCCUUUCAUAACAUGAGGAUCACCCAUGUCGGUGGGAGAAGGGCCGUACGGCG [JL ViennaUCT Atra mod 5] (Eterna round: R96, puzzle: Exclusion NG 2) | 226 | 129 | 93.3 |  |  |  |
| AAUAACAAUGUGAGGAUAUCUAGAGCCUCGGCUCUAGAGAAGGCACAUGAGGAUCACCCAUGUCUCAAUAACAA [BmEx4/2-E7] (Eterna round: R97, puzzle: Brourd's mod of Exclusion 4) | 502 | 52.7 |  |  |  |  |
| CCCUCACAUGAGGAUCACCCAUGUCAGGAUAUCUCAGUGCAUCCACACGGACGCAUCAAGAGAAGGGACAAAAC [Ququ] (Eterna round: R97, puzzle: Exclusion 1) | 27.8 | 18.4 |  |  |  |  |
| GUCCGGCAUGUAGGAUAUGGAUCCGAUUAGGAUCCAGAAGGACAUGAGGAUCACCCAUGUACAUGUAAACAGUCAUCACCGGAC [Fiskers ExNg1 - 13] (Eterna round: R96, puzzle: Exclusion NG 1) | 44.6 | 18.7 | 14.1 |  |  |  |
| GCCGUACAAGGAUAUCUAUCGCAAAACAUGAGGAUCACCCAUGUGUAUCCUAACCGGCGAAGAGAAGGUGUAGUUA [Letelabe] (Eterna round: R97, puzzle: Exclusion 5) | 24.4 | 18.1 |  |  |  |  |
| CUGAGCUGAGGAUAUACAUGAGGAUCACCCAUGUGUUCCAGCUUGCGUACAGGCAGAUGUAGAAGGCAGUUCGG [JL-ex3-3.35 Brourd mod] (puzzle: Exclusion 3) |  |  |  | 38.9 |  |  |
| AGCAUGCAGUAGGAUAUCGAUCCACAAUAUGAACGAGAAGGGCUGACAUGAGGAUCACCCAUGUGCGUCCGAAG [Ersoontiri] (Eterna round: R97, puzzle: Exclusion 6) | 21 | 16.8 |  |  |  |  |

| Sequence | apparent KD of MS2 coat protein (input ligand: FMN 200 uM) [nM] | apparent KD of MS2 coat protein (input ligand: none) [nM] | apparent KD of MS2 coat protein [1] [nM] | apparent KD of MS2 coat protein [2] [nM] | apparent KD of MS2 coat protein [3] [nM] | apparent KD of MS2 coat protein [4] [nM] |
| --- | --- | --- | --- | --- | --- | --- |
| AUAAUUUAAGUGAGGAUAUACCUAUGGAAACAUAGGUAGAAGGCACAUGAGGAUCACCCAUGUUCCUAUACAAA [Fiskers BMX 4 - 1] (puzzle: Brourd's mod of Exclusion 4) |  |  |  | 12.7 | 16.5 | 9.08 |
| AGUUGGGCAGGAUAUACAUGAGGAUCACCCAUGUGAGAAAUACUAGUGAGGUCGAUUAGUAGAAGGGCCUGACA [Mat - Exclusion 3 - Eli Mod - D30] (Eterna round: R97, puzzle: Exclusion 3) | 244 | 31.2 |  |  |  |  |
| GCCGUGUUAGGAUAUCGCUCGACGAAUAGUUGUCGGAGGAACGAGAAGGAACAUGAGGAUCACCCAUGUGUCAC [Eternabot (L1) Solution 33] (Eterna round: R97, puzzle: Exclusion 4) | 57.5 | 21.4 |  |  |  |  |
| AAAGAACAUGAGGAUCACCCAUGUGAGGAUAUGCGAAAACCGCUAACAAACCAGACGGGCAGAAGGCAUAUGGU [Leistequ] (puzzle: Exclusion 1) |  |  |  | 39.1 | 68.9 | 63.7 |
| AUAUUGUGAGGAUAUGAACUUACUAUCGAAAGAUACUAAGUUCAGAAGGCACAUGAGGAUCACCCAUGUUUCUC [Long static hairpin v19] (Eterna round: R97, puzzle: Exclusion 4) | 664 | 76.1 |  |  |  |  |
| GCAGAAUGAGUUAGGAUAUGAUGAUUUUUUUUAUAUCAGAAGGAACUUGAGGAUCACCCAAGUUAAGAUAGGGU [JR_BMEx4_Sub067] (Eterna round: R97, puzzle: Brourd's mod of Exclusion 4) | 89.2 | 138 |  |  |  |  |
| AUAUAGUCAGGAUAUCGAAAUAUAUAUUAAUAUAUAUAAUACGAGAAGGGACAUGAGGAUCACCCAUGUAGUAA [JR_Exclusion4)Sub001] (puzzle: Exclusion 4) |  |  |  | 23.7 |  |  |
| GAUCAGUAAGGAUAUACAUGAGGAUCACCCAUGUGGAUGGCCGCGCAUUUCCAUUCAGGUAGAAGGUACUGAGU [Eternabot (L1) Solution 94] (Eterna round: R97, puzzle: Exclusion 3) | 54.3 | 36.8 |  |  |  |  |
| UGCAUGUAAGGAUAUGCAUCCGCCAACGAACCGGCGGCACAGCAGAAGGUACAUGAGGAUCACCCAUGUGUCCC [Isonrian] (Eterna round: R96, puzzle: Exclusion 4) | 357 | 29.8 | 25 |  |  |  |
| UCAGGUCGGUAGGAUAUCGACGGGAAAAGCCCACGAGAAGGACUGACAUGAGGAUCACCCAUGUGAGCGUAACC [EX6 B.1] (Eterna round: R97, puzzle: Exclusion 6) | 37.9 | 101 |  |  |  |  |
| GAGAAGGUAGGAUAUACGAAGAAAAAGGGUAGAAUAAUAACACAUGAGGAUCACCCAUGUAGAAGGACCAAGAG [Mat - Exclusion 2 - Mod of my Tesla design - D19] (puzzle: Exclusion 2) |  |  |  | 16.7 | 44.3 | 20.4 |
| GAGAAGGUAGGAUAUACGAAUAAAAAGGGUAGAAUAAGAACACAUGAGGAUCACCCAUGUAGAAGGACCAAGAG [Mat - Exclusion 2 - Mod of my Tesla design - D21] (puzzle: Exclusion 2) |  |  |  | 18.4 | 32.8 | 18.5 |
| AAAGCGUGAGGAUAUGAGGCGCCGGGCCGGUUGGUGCGGAUUCAGAAGGCACAUGAGGAUCACCCAUGUCGGUA [Excls4-IV] (puzzle: Exclusion 4) |  |  |  | 37.2 |  |  |
| GAUCAACAUGAGGAUCACCCAUGUGAGGAUAUGUAUCAUAGAUCUUCGGAUCUAUGAUACAGAAGGCAUGUGGA [Ex1-3: 100c] (puzzle: Exclusion 1) |  |  |  | 144 |  |  |
| UGAAUGUGAGGAUAUGGUGAGUAGUGCCUGAGCGCUGCUCACCAGAAGGCACAUGAGGAUCACCCAUGUACUUG [JL-ex4-2.07 denovo] (puzzle: Exclusion 4) |  |  |  | 49.4 |  |  |
| AAGAAACGGCAGGAUAUCCAGUCGAGAGAAAUAGGAGAAGGGCCAACAUGAGGAUCACCCAUGUCGGUGGCCUC [Rariinon] (Eterna round: R97, puzzle: Exclusion 6) | 145 | 78.5 |  |  |  |  |
| CCAAGCUUAUUCAUUAACCACAUGAGGAUCACCCAUGUAUAGGCAAUUAUGACUGGGCAAUGUGGUGCUCGUCUUAU [Sensor-V1 #28] (Eterna round: R97, puzzle: Sensor, turn-off variant 1) | 39.5 | 41.3 |  |  |  |  |

Source: the supplement of paper PMC9170038
